Experimental data reported in patent publication US20180051071A1.

Key:
Test in all cases: sandwich EIA: 82E1 capture, HRP-labelled IBL-102; antigen 4000 pg/mL read on the E22P-Aβ42 standard curve
[1] = molecular target: E22V-Aβ42 (Homo sapiens (Human)) (UniProt P05067)
[2] = molecular target: M35P-Aβ42 (Homo sapiens (Human)) (UniProt P05067)
[3] = molecular target: V24P-Aβ42 (Homo sapiens (Human)) (UniProt P05067)
[4] = molecular target: A21P-Aβ42 (Homo sapiens (Human)) (UniProt P05067)
[5] = molecular target: G25P-Aβ42 (Homo sapiens (Human)) (UniProt P05067)
[6] = molecular target: D23P-Aβ42 (Homo sapiens (Human)) (UniProt P05067)

- cross-reaction rate [1]: 0.28%
- cross-reaction rate [2]: 0.68%
- cross-reaction rate [3]: 0.33%
- cross-reaction rate [4]: 0.27%
- cross-reaction rate [5]: 0.53%
- cross-reaction rate [6]: 0.5%
B1: IBL-102 antibody (antibody, mouse IgG1, kappa, V domains shown)
VH: EVQLQQSGPELVKPGASVKIFCKASGYTFTDYNMDWVKQSHGKRLEWIGDINPNTGVTIDNPKFKGKATLTVDESSSTVYMELRSLSSEDTAVYYCARLPDNYVMDYWGQGTSVTVSA
VL: DVVMTQTPLSLPVSLGDQASISCRCSQSLVHRNGNTNLHWYLQKSGQSPKLLIYKVSNRFSGVPDRFSGSGSGTDFTLKISRVEAEDLGVYFCSQSTYVPLTFGVGTKLELKR
